Assay [1] has as its target T1, hACE2 (Homo sapiens, UniProt Q9BYF1). Also on record: method as in ref 3 (SI list; Bedding et al. 2024). The note with it: mRNA display cyclic peptides; ref 3 (SI list; Bedding et al. 2024); cited from earlier work.
Assay [2] concerns the target T1, hACE2. Details: method as in ref 3 (SI list; Bedding et al. 2024). The note with it: mRNA display cyclic peptides, ref 3 (SI list; Bedding et al. 2024), cited from earlier work; for Ki: where not reported, calculated by Cheng-Prusoff, Km 23 μM.
For assay [3], the target named is T1, hACE2. Details: method as in ref 4 (SI list; Huang et al. 2003). The note with it: phage display DX peptides, ref 4 (SI list; Huang et al. 2003), cited from earlier work; for Ki: where not reported, calculated by Cheng-Prusoff, Km 23 μM.
Assay [4] concerns the target T1, hACE2. Also on record: method as in ref 2 (SI list; Harman et al. 2023). The settings on record: phage display bicyclic peptides; ref 2 (SI list; Harman et al. 2023); cited from earlier work.
In assay [5] the target is T1, hACE2. Also on record: method as in ref 2 (SI list; Harman et al. 2023). The note with it: phage display bicyclic peptides, ref 2 (SI list; Harman et al. 2023), cited from earlier work; for Ki: where not reported, calculated by Cheng-Prusoff, Km 23 μM.
In a further assay the target is T2, hACE1 (Homo sapiens, UniProt P12821).
T2 construct: purchased R&D Systems
The assay is described as follows: biochemical.

“And” between values parts separate entries of the source, which are not always exact repeats. Identical values can stand only once. Like-named read-outs stand apart in the source and are kept apart here.

T1 sequence (Q9BYF1 19-615): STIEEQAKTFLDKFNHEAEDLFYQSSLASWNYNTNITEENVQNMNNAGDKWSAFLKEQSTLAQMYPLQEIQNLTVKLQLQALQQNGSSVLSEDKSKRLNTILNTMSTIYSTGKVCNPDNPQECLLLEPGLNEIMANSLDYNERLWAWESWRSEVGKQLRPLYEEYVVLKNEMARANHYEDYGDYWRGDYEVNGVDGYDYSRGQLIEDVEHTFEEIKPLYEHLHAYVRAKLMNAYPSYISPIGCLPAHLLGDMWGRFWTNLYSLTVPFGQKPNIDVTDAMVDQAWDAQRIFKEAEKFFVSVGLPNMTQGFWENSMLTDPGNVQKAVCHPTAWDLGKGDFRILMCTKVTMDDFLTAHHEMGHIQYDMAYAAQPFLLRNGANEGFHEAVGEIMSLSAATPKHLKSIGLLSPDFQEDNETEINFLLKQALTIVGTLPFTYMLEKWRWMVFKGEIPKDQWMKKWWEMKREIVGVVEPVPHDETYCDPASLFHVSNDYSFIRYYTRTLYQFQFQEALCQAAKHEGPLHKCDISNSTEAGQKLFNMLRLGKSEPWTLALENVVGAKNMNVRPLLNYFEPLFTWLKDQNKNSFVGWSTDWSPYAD
T2 sequence (P12821 30-1306): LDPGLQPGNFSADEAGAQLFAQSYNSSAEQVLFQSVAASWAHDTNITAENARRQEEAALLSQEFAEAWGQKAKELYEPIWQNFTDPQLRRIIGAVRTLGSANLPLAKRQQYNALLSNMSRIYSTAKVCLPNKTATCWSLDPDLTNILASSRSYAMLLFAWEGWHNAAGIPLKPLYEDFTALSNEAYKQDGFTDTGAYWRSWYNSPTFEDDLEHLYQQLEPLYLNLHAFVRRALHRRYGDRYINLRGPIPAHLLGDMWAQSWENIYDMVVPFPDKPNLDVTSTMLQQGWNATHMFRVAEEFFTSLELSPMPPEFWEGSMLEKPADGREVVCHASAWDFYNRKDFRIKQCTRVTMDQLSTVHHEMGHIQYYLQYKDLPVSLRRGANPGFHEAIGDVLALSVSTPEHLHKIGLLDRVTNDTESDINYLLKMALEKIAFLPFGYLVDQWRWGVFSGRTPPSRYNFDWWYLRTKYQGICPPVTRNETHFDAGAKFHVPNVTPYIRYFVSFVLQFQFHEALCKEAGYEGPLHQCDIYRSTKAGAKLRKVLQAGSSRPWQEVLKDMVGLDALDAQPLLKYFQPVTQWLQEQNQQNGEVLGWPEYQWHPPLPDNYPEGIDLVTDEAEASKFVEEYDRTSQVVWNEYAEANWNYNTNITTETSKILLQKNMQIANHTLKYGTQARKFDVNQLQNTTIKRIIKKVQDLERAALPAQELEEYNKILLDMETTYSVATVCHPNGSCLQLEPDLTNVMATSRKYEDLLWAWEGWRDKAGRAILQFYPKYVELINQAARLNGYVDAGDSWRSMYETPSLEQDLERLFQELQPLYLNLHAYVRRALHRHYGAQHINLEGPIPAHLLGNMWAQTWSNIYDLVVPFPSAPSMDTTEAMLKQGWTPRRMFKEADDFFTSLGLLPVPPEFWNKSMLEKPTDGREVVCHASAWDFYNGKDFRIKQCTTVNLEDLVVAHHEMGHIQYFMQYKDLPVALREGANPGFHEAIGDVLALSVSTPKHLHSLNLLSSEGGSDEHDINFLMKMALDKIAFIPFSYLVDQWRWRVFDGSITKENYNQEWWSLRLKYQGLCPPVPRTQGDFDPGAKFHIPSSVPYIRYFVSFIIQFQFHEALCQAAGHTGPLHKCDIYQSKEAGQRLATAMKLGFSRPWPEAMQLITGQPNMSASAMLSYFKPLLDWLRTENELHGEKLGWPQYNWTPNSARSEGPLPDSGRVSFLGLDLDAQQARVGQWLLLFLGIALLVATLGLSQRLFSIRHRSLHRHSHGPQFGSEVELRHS
Protocol for hACE1: The activity assay was performed by incubating 0.25 nM of hACE2 with 50 μM fluorogenic substrate Mca-Ala-Pro-Lys­(Dnp)–OH (MedChemExpress, Monmouth Junction, NJ, USA) and 3-fold MP dilutions (ranging from 0.03 nM to 100 μM). […] All reagents were diluted in 10 mM Tris–HCl, pH 7.4, 300 mM NaCl, 100 μM ZnCl2, 0.1% w/v BSA, and 0.1% v/v DMSO assay buffer. The measurements were performed on a Berthold TriStar LB 941 microplate reader (Berthold Technologies, Bad Wildbad, Germany) using flat-bottom 96-well half area Corning Costar plates (Corning, New York, USA). The enzymatic reactions were performed at 25 °C for 90 min, under shaking with a maximum excitation wavelength (λex) of 320 nm and maximum emission wavelength (λem) of 405 nm. The initial velocities were monitored as changes in fluorescence intensity. Half-maximum inhibitory concentration (IC50) values were determined using GraphPad Prism v8.2.1 software (GraphPad software Inc., San Diego, CA, USA). […] Reactions were initiated by adding hACE2 (final concentration 0.25 nM) to the fluorogenic substrate in assay buffer at 25 °C. Fluorescence was recorded as described earlier (λex = 320 nm, λem = 405 nm) using a Berthold TriStar LB 941 microplate reader (Berthold Technologies, Bad Wildbad, Germany). Initial velocities (V 0) were plotted against substrate concentrations [S] and analyzed via nonlinear regression using a one-site specific binding model using GraphPad Prism v8.2.1 software (GraphPad software Inc., San Diego, CA, USA). […] All reagents were diluted in 10 mM Tris-HCl, pH 7.4, 300 mM NaCl, 100 μM ZnCl2, 0.1% w/v BSA, and 0.1% v/v DMSO buffer. Measurements and data analysis were performed as mentioned above.

Broadly, the Kd is the constant that tells how readily two partners part at equilibrium. As a reminder, the IC50 is the concentration needed to halve the response being measured. Broadly, the Ki is the equilibrium dissociation constant of an inhibitor or competing ligand from its target. As to y*RLHRSPWAHFGFAC [peptide20], in the assay with hACE2 [1], the Kd was 228 nM. Further, in the assay with hACE2 [2], the 50% inhibitory concentration (IC50) is 1980 nM and the Ki was 370 nM.

For the compound y*VHIIYWKNGLPRITC [peptide14], the Kd with hACE2 [1] was 82.3 nM. Besides, in the assay with hACE2 [2], the IC50 was 9720 nM and the Ki was 1820 nM.

With AGSDWCGTWNNPCFHQGT [DX531], in the assay with hACE2 [3], the IC50 was 500 nM and the Ki is 540 nM.

In the case of ACVRSHCSSLLPRIHCA [BCY15291], the Kd with hACE2 [4] is 0.4 nM and 0.44 nM. In the assay with hACE2 [5], the IC50 was 2 nM and the Ki is 0.9 nM.

With y*ARPLRHRPWYVSWC [peptide6], the Kd with hACE2 [1] is 3.3 nM.

Take AGQKECKFGYPHCLPWGT [DX530]: the IC50 with hACE2 [3] is 30000 nM.

Take Y*VKRNVYEGYKPC [peptide15]: the Kd with hACE2 [1] was 7.3 nM.

In the case of Y*VFRSLRTPFIVC [peptide1], in the assay with hACE2 [1], the Kd is 0.4 nM.

With y*SYQYRGRFHRQC [peptide19], the Kd in the assay with hACE2 [1] is 78 nM.

Consider ACLRSYNLCPRINCA [BCY15294], for which the Kd with hACE2 [4] is 850 nM. In the assay with hACE2 [5], the IC50 is 2400 nM and the Ki is 1100 nM.

As to y*TYQYRDRFFRPC [peptide22], in the assay with hACE2 [1], the Kd was 14.8 nM.

Consider y*IRQFTSRVPLHC [peptide21], for which the dissociation constant (Kd) in the assay with hACE2 [1] was 3.6 nM.

In the case of Y*AVLLHKGKFVFTYGC [peptide12], the Kd with hACE2 [1] was 610 nM. In the assay with hACE2 [2], the IC50 was 39500 nM and the inhibitory constant (Ki) is 7390 nM.

In the case of y*VQRPIRNVRLIRC [peptide24], the Kd with hACE2 [1] is 430 nM.

For ACGREELPCRIKLCA [BCY15298], the IC50 with hACE2 [5] was above 40000 nM.

For the compound ACHRDFPRCTWETQWCA [BCY15297], the Kd in the assay with hACE2 [4] was 11000 nM. Moreover, in the assay with hACE2 [5], the IC50 was 12000 nM and the Ki was 5200 nM.

In the case of Y*WTLFVFRDGVLPVWSC [peptide9], the Kd with hACE2 [1] is 50.3 nM. For the same compound, in the assay with hACE2 [2], the IC50 was 2050 nM and the Ki is 383 nM.

As for ACGRQFCHTLMPRHLCA [BCY15292], the Kd with hACE2 [4] is 1.2 nM. Moreover, in the assay with hACE2 [5], the IC50 was 2.6 nM and the Ki is 1.2 nM.

With y*DAYTRRTHRNPRLCQC [peptide7], the Kd with hACE2 [1] is 32 nM.

Turning to ACHKFPCRDPQQYLFCA [BCY15296], the Kd in the assay with hACE2 [4] is 29 nM. For the same compound, in the assay with hACE2 [5], the IC50 was 47 nM and the Ki is 21 nM.

In the case of Y*FQRSVRLPYLRC [peptide2], in the assay with hACE2 [1], the Kd was 0.04 nM.

Take AGWEVCHWAPMMCKHGGT [DX529]: in the assay with hACE2 [3], the IC50 was 400 nM and the Ki is 380 nM.

Take ACTRPWCHSLLPRATCA [BCY15293]: the Kd with hACE2 [4] was 1.6 nM. Moreover, in the assay with hACE2 [5], the IC50 was 4.9 nM and the Ki was 2.2 nM.

Regarding y*VVLRPLRDLGRVFC [peptide5], the Kd with hACE2 [1] was 9 nM.

`CC(=O)NCC(=O)N[C@@H](CC(=O)O)C(=O)N[C@@H](Cc1ccc(O)cc1)C(=O)N[C@@H](CO)C(=O)N[C@@H](Cc1cnc[nH]1)C(=O)N[C@H]1CSSC[C@@H](C(=O)N[C@H](C(=O)N[C@@H](Cc2ccc(O)cc2)C(=O)N2CCC[C@H]2C(=O)N[C@@H](CC(=O)O)C(=O)N2CCC[C@H]2C(=O)N[C@@H](CCC(=O)O)C(=O)NCC(=O)NCC(=O)NCC(N)=O)[C@@H](C)O)NC(=O)[C@H](CCCCN)NC(=O)[C@H](Cc2c[nH]c3ccccc23)NC(=O)[C@H](Cc2c[nH]c3ccccc23)NC(=O)[C@@H]2CCCN2C(=O)[C@H](Cc2ccc(O)cc2)NC(=O)[C@H](Cc2ccc(O)cc2)NC(=O)[C@H](CCCNC(=N)N)NC(=O)[C@H](CC(C)C)NC(=O)[C@@H]2CCCN2C(=O)[C@H](CO)NC1=O` [DX600]: the IC50 against hACE1 was above 100000 nM.

On to Y*VLSSPRGALRALRC [peptide3], for which the Kd in the assay with hACE2 [1] was 290 nM.

In the case of GSRIGCRDSRCNWWAP [DX524], in the assay with hACE2 [3], the IC50 was 600 nM and the Ki was 540 nM.

In the case of GSRGFCRDSSCSFPAP [DX525], in the assay with hACE2 [3], the IC50 is 1000 nM and the Ki is 1700 nM.

For y*FNRSGKLLFLYC [peptide4], the Kd with hACE2 [1] was 240 nM.

Take y*LSVNRVFAYRIIYKC [peptide23]: the Kd with hACE2 [1] was 9.1 nM.

(Values after publication PMC13071878, “Yeast Display Technology Enables Rapid Discovery of Low-Nanomolar Macrocyclic Peptide Inhibitors of Human Angiotensin-Converting Enzyme 2” (Journal of Medicinal Chemistry, 2026).)
